According to patent US20240269303A1 (RESEARCH DEVELOPMENT FOUNDATION, published 2024):

Assays:
LGR5 [1] = biological target: T1, LGR5 (UniProt O75473 22-907, limits assumed); assay: cell-based or functional assay
T1 sequence (looked up): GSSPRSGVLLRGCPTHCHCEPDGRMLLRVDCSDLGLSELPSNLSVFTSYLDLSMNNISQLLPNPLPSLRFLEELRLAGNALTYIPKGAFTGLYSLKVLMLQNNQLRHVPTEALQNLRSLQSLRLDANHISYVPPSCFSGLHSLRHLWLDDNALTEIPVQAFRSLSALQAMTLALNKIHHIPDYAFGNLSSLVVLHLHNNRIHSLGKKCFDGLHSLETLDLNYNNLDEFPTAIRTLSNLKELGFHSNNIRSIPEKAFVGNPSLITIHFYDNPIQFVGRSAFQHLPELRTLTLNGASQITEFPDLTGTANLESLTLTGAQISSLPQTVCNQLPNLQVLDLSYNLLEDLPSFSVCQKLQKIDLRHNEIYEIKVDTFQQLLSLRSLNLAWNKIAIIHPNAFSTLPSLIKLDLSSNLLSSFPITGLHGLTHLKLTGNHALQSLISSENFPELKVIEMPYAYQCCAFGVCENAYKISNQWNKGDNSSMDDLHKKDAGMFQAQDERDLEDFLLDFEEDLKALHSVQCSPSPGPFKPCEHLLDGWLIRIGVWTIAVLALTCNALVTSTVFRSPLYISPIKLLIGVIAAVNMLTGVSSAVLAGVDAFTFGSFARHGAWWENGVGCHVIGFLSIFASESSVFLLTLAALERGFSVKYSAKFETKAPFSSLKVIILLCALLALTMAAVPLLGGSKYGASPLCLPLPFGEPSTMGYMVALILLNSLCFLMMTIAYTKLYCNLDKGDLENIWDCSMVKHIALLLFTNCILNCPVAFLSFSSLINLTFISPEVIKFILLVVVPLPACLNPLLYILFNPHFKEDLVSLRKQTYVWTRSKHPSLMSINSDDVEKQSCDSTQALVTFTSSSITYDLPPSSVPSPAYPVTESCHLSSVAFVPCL

LGR5 [2] = biological target: T1, LGR5; assay: cell-based or functional assay; remark: listed apart in the source

B1: FcST4-MMAE (Fc fusion)
chain: EPKSCDKTHTCPPCPAPELLGGPSVFLFPPKPKDTLMISRTPEVTCVVVDVSHEDPEVKFNWYVDGVEVHNAKTKPREEQYNSTYRVVSVLTVDHHDWLNGKEYKCKVSNKALPAPIEKTISKAKGQPREPQVYTLPPSRDELTKNQVSLTCLVKGFYPSDIAVEWESNGQPENNYKTTPPVLDSDGSFFLYSKLTVDKSRWQQGNVFSCSVMHEALHSHYTQKSLSLSPGKGGGGSGGGGSSRGIKGKRQRRISAEGSQACAKGCELCSEVNGCLKCSPKLFILLERNDIRQVGVCLPSCPPGYFDARNPDMNKCIKCKIEHCEACFSHNFCTKCKEGLYLHKGRCYPACPEGSSAANGTMECSSPGGGGSGGGGSSRGIKGKRQRRISAEGSQACAKGCELCSEVNGCLKCSPKLFILLERNDIRQVGVCLPSCPPGYFDARNPDMNKCIKCKIEHCEACFSHNFCTKCKEGLYLHKGRCYPACPEGSSAANGTMECSSPGGGGSGGGGSLPETGGG
modifications: C-terminal GGG carries val-cit-PAB-MMAE (sortase reaction with G3-val-cit-PAB-MMAE; GG-8xHis removed)
- IC50 of cytotoxicity (OVCAR8 empty vector and LGR5-overexpressing cells; the cell line of each end is not stated) (LGR5 [1]): 1.9 to 3.8 nM

B2: FcF2-PNU159682 (Fc fusion)
chain: EPKSCDKTHTCPPCPAPELLGGPSVFLFPPKPKDTLMISRTPEVTCVVVDVSHEDPEVKFNWYVDGVEVHNAKTKPREEQYNSTYRVVSVLTVDHHDWLNGKEYKCKVSNKALPAPIEKTISKAKGQPREPQVYTLPPSRDELTKNQVSLTCLVKGFYPSDIAVEWESNGQPENNYKTTPPVLDSDGSFFLYSKLTVDKSRWQQGNVFSCSVMHEALHSHYTQKSLSLSPGKGGGGSGGGGSSRGIKGKRQRRISAEGSQACAKGCELCSEVNGCLKCSPKLFILLERNDIRQVGVCLPSCPPGYFDARNPDMNKCIKCKIEHCEACFSHNFCTKCKEGLYLHKGRCYPACPEGSSAANGTMECSSPGGGGSGGGGSLPET
modifications: PNU159682 (anthracycline derivative) joined to the C-terminus by sortase A; the linker is not described
- IC50 of growth inhibition, OVCAR8/EV cells (LGR5-poor control) (LGR5 [1]): > 3 nM
- IC50 of growth inhibition, OVCAR8/LGR5 cells (LGR5 [1]): 0.3 nM
- IC50 ratio, OVCAR8/EV to OVCAR8/LGR5 (LGR5 [1]): ~10 ratio

B3: FcF2-deruxtecan (Fc fusion)
chain: EPKSCDKTHTCPPCPAPELLGGPSVFLFPPKPKDTLMISRTPEVTCVVVDVSHEDPEVKFNWYVDGVEVHNAKTKPREEQYNSTYRVVSVLTVDHHDWLNGKEYKCKVSNKALPAPIEKTISKAKGQPREPQVYTLPPSRDELTKNQVSLTCLVKGFYPSDIAVEWESNGQPENNYKTTPPVLDSDGSFFLYSKLTVDKSRWQQGNVFSCSVMHEALHSHYTQKSLSLSPGKGGGGSGGGGSSRGIKGKRQRRISAEGSQACAKGCELCSEVNGCLKCSPKLFILLERNDIRQVGVCLPSCPPGYFDARNPDMNKCIKCKIEHCEACFSHNFCTKCKEGLYLHKGRCYPACPEGSSAANGTMECSSPGGGGSGGGGSLPETGGGC
modifications: C-terminal Cys of GGGC carries maleimide-GGFG-deruxtecan
- IC50 of growth inhibition, OVCAR8/EV cells (LGR5-poor control; CCK8, 120 h) (LGR5 [1]): 9.04 nM
- IC50 of growth inhibition, OVCAR8/LGR5 cells (CCK8, 120 h) (LGR5 [1]): 0.753 nM
- selectivity, OVCAR8/LGR5 against OVCAR8/EV (LGR5 [1]): 12 fold

B4: FcF2Δlinker-MMAE (Fc fusion)
chain: EPKSCDKTHTCPPCPAPELLGGPSVFLFPPKPKDTLMISRTPEVTCVVVDVSHEDPEVKFNWYVDGVEVHNAKTKPREEQYNSTYRVVSVLTVDHHDWLNGKEYKCKVSNKALPAPIEKTISKAKGQPREPQVYTLPPSRDELTKNQVSLTCLVKGFYPSDIAVEWESNGQPENNYKTTPPVLDSDGSFFLYSKLTVDKSRWQQGNVFSCSVMHEALHSHYTQKSLSLSPGKSRGIKGKRQRRISAEGSQACAKGCELCSEVNGCLKCSPKLFILLERNDIRQVGVCLPSCPPGYFDARNPDMNKCIKCKIEHCEACFSHNFCTKCKEGLYLHKGRCYPACPEGSSAANGTMECSSPLPETGGG
modifications: C-terminal GGG carries valine-citrulline-PAB-MMAE
- IC50 (read off the curve), growth inhibition of OVCAR8/LGR5 cells [panel ExpiCHO FcF2-MMAE linker deletion batch #1] (LGR5 [2]): ~4 nM
